From patent publication US9273304B2, “Inactivation method” (Thermo Fisher Scientific Baltics UAB, priority 2006, dated 2016) come the findings set out here.

Test [1] has as its target Taq DNA polymerase (Thermus aquaticus, UniProt P19821). Put plainly: Polymerase activity assay: incorporation of [3H]-dTTP into the polynucleotide adsorbed on DE-81 in 30 min at 70° C. Conditions: aqueous solution. In kind it is biochemical. How it is done: The measure of the enzyme activity was incorporation of [^3H]-dTTP into polynucleotide fraction. One unit of polymerase activity is defined as the enzyme amount which incorporates 10 nmoles of deoxyribonucleotides into the polynucleotide adsorbed on DE-81 in 30 min at 70° C.
For activity assays, Taq DNA polymerase was diluted up to 4 u/ml with the dilution buffer of the following composition: 20 mM Tris-HCl (pH 8.8 at 25° C.), 1 mM EDTA, 1 mM DTT, and BSA (0.1 mg/ml). Reactions were carried out at 70° C. for 30 min with 5 μl of the diluted enzyme in 50 μl of the reaction buffer of the following composition: 67 mM Tris-HCl (pH 8.8 at 25° C.), 50 mM NaCl, 6.7 mM MgCl2, 1 mM DTT, and BSA (0.1 mg/ml). The reaction buffer was supplemented with 0.2 mM dNTP, [3H]-dTTP (0.4 MBq/ml) and 0.75 mM activated DNA from calf thymus.
Activity of the modified enzymes was measured either with the pre-incubation step, or without it, for 10 min at 95° C. in the pre-heating buffer of the following composition: 20 mM Tris-HCl (pH 8.25 at 25° C.), 100 mM KCl, 2 mM MgCl2, 0.5% Tween 20, 0.5% Nonidet P40, and 16% glycerol.
(§1) Aliquots (35 μl) of the enzyme solution were mixed with 2.25 μl aliquots of the N-ethoxycarbonyl-2,3-dimethylmaleinimide solutions described above resulting in the following molar ratios of Taq DNA polymerase to N-ethoxycarbonyl-2,3-dimethylmaleinimide: 1/1280 1/640, 1/320, 1/160, 1/110, 1/80, 1/40. The mixtures were incubated for 20 hours at 4° C. to modify the Taq DNA polymerase. Control samples, in which the enzyme was left unmodified (e.g., the ratio was 1/0), were obtained by mixing the Taq DNA polymerase with a 2.25 μl aliquot of DMF. These control samples were incubated under the same conditions as the modified ones.
The samples of the unmodified Taq DNA polymerase and the modified Taq DNA polymerases were diluted 250-fold in the pre-heating buffer (see Example 2) and activities of the modified enzyme were measured both before heat-reactivation and after it, as described in the Example 2. Activities of both inactivated and heat-reactivated DNA polymerases were determined as described in the Example 2, and the data were normalized to activity of the unmodified Taq DNA polymerase
Aliquots (20.6 μl) of the diluted enzyme solution were mixed with 1 μl of N-isobutoxycarbonyl-2,3-dimethylmaleinimide solutions described above resulting in different molar ratios of Taq DNA polymerase to N-isobutoxycarbonyl-2,3-dimethylmaleinimide (1/320, 1/160, 1/80 and 1/40). The mixtures were incubated 20 hours at 4° C. to modify the Taq DNA polymerase. Control samples, in which the enzyme was left unmodified (e.g., the ratio was 1/0), were obtained by mixing the Taq DNA polymerase with a 1 μl aliquot of DMF. These control samples were incubated under the same conditions as the modified ones. The heat-reactivation of the modified enzymes was performed as described in the Example 3.

The target in test [2] is T1, Pfu DNA polymerase (Pyrococcus furiosus, UniProt P61875).
T1 construct: Native Pfu DNA polymerase was used at initial concentration of 1.065 mg/ml
T1 sequence (P61875 1-775): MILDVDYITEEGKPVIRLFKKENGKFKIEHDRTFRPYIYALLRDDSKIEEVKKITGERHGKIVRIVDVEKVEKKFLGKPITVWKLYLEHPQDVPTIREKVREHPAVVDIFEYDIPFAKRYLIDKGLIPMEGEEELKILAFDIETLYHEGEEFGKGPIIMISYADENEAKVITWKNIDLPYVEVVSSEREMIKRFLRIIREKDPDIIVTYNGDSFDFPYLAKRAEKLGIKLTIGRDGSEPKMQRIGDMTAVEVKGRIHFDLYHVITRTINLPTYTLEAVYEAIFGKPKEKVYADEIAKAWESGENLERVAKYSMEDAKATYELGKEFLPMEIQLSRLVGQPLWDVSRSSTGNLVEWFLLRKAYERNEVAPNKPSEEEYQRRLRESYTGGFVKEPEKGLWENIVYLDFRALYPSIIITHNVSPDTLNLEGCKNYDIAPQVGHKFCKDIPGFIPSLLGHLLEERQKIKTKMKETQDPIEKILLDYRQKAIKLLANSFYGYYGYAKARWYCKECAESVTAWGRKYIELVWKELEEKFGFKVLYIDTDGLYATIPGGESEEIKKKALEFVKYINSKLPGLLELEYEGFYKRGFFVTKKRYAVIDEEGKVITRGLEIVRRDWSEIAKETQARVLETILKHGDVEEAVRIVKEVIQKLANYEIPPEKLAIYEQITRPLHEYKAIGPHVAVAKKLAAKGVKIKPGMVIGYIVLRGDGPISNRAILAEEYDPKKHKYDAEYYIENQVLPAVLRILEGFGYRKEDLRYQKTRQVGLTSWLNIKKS
The test can be described thus: Polymerase activity assay: incorporation of [3H]-dTTP into the polynucleotide adsorbed on DE-81 in 30 min at 50° C. or 72° C. Format: biochemical. The following applies: aqueous solution. How it is done:
as §1, with “A set of N-ethoxycarbonyl-2,3-dimethylmaleinimide solutions (72 mM, 18 mM) was prepared by serial dilutions of the 720 mM stock in N,N dimethylformamide (DMF). Aliquots” for “Aliquots”, “(25” for “(35”, “1” for “2.25”, “Pfu” for “Taq”, “1/800, 1/200.” for “1/1280 1/640, 1/320, 1/160, 1/110, 1/80, 1/40.”
The samples of the unmodified Pfu DNA polymerase and the modified Pfu DNA polymerases were diluted in the pre-heating buffer (see Example 2) either 9-fold for measurements at 50° C., or 24-fold for measurements at 72° C. (see Example 2). Activities of the modified enzymes were measured either with the pre-incubation step, or without it, for 10 min at 95° C.
For activity assays, Pfu DNA polymerase was diluted up to 11 u/ml (91 u/ml for measurements at 50° C.) in the dilution buffer (see Example 2). Reactions were carried out either at 50° C., or at 72° C. for 30 min. Aliquots (5 μl) of the diluted enzyme were added to 50 μl of the reaction buffer of the following composition: 20 mM Tris-HCl (pH 8.8 at 25° C.), 10 mM (NH4)2SO4, 10 mM KCl, 2 mM MgCl2, 0.1% Triton X-100, and BSA (0.1 mg/ml) supplemented with, 0.2 mM dNTP, [3H]-dTTP (0.4 MBq/ml) and 0.75 mM activated DNA from calf thymus.

[3] abbreviates: molar ratio Taq DNA polymerase/N-iso-butoxycarbonyl-2,3-dimethylmaleinimide 1/40.
[4] abbreviates: molar ratio Taq DNA polymerase/N-iso-butoxycarbonyl-2,3-dimethylmaleinimide 1/80.
[5] abbreviates: molar ratio Taq DNA polymerase/N-iso-butoxycarbonyl-2,3-dimethylmaleinimide 1/160.
Where [6] appears, read: molar ratio Taq DNA polymerase/N-iso-butoxycarbonyl-2,3-dimethylmaleinimide 1/320.
Setting [7] is: molar ratio Pfu/N-etoxycarbonyl-2,3-dimethylmaleinimide 1/200.
[8] abbreviates: molar ratio Pfu/N-etoxycarbonyl-2,3-dimethylmaleinimide 1/800.

Chain of Taq DNA polymerase (P19821 whole entry): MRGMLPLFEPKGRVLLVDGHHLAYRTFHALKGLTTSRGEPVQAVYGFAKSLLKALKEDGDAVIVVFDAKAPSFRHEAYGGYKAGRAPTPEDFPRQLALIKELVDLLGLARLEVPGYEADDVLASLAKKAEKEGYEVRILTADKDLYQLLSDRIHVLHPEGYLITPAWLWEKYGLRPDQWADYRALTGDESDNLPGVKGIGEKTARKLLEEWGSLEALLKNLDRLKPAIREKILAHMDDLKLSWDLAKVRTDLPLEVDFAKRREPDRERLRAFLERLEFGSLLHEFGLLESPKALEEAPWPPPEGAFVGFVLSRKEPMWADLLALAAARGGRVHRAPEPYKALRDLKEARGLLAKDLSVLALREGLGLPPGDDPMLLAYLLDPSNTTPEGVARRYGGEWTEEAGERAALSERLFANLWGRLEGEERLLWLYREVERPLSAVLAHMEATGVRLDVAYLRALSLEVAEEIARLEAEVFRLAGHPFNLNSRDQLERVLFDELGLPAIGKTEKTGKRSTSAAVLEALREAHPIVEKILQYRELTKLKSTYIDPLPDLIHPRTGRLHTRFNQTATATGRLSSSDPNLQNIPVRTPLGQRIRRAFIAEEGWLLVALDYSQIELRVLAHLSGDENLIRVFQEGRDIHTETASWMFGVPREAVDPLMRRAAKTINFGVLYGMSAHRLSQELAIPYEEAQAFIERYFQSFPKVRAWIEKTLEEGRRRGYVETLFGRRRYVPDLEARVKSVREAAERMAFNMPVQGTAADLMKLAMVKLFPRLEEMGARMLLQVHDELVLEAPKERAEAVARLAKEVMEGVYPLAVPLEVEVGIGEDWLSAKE

As for “Taq DNA polymerase treated with N-iso-butoxycarbonyl-2,3-dimethylmaleinimide: Recombinant Taq DNA polymerase modified with N-isobutoxycarbonyl-2,3-dimethylmaleinimide in aqueous solution, molar ratios 1/40 to 1/320”, the “Activity at 70° C. (%) After 10 min. preheating at 95° C.” value in test [1] (setting [3]) is on record as roughly 90%; in test [1] (setting [4]), roughly 100%; in test [1] (setting [5]) it was roughly 80%; in test [1] (setting [6]) it was roughly 40%. For the same molecule, the “Activity at 70° C. (%) Without preheating at 95° C.” value in test [1] (setting [3]) is on record as roughly 50%; in test [1] (setting [4]) it was roughly 40%; in test [1] (setting [5]), roughly 30%; in test [1] (setting [6]) it was roughly 10%.

B1: Pfu DNA polymerase modified with N-etoxycarbonyl-2,3-dimethylmaleinimide: Native Pfu DNA polymerase reversibly inactivated with N-ethoxycarbonyl-2,3-dimethylmaleinimide, molar ratios 1/200 and 1/800 (protein, UniProt P61875 1-775, looked up)
DNA polymerase: MILDVDYITEEGKPVIRLFKKENGKFKIEHDRTFRPYIYALLRDDSKIEEVKKITGERHGKIVRIVDVEKVEKKFLGKPITVWKLYLEHPQDVPTIREKVREHPAVVDIFEYDIPFAKRYLIDKGLIPMEGEEELKILAFDIETLYHEGEEFGKGPIIMISYADENEAKVITWKNIDLPYVEVVSSEREMIKRFLRIIREKDPDIIVTYNGDSFDFPYLAKRAEKLGIKLTIGRDGSEPKMQRIGDMTAVEVKGRIHFDLYHVITRTINLPTYTLEAVYEAIFGKPKEKVYADEIAKAWESGENLERVAKYSMEDAKATYELGKEFLPMEIQLSRLVGQPLWDVSRSSTGNLVEWFLLRKAYERNEVAPNKPSEEEYQRRLRESYTGGFVKEPEKGLWENIVYLDFRALYPSIIITHNVSPDTLNLEGCKNYDIAPQVGHKFCKDIPGFIPSLLGHLLEERQKIKTKMKETQDPIEKILLDYRQKAIKLLANSFYGYYGYAKARWYCKECAESVTAWGRKYIELVWKELEEKFGFKVLYIDTDGLYATIPGGESEEIKKKALEFVKYINSKLPGLLELEYEGFYKRGFFVTKKRYAVIDEEGKVITRGLEIVRRDWSEIAKETQARVLETILKHGDVEEAVRIVKEVIQKLANYEIPPEKLAIYEQITRPLHEYKAIGPHVAVAKKLAAKGVKIKPGMVIGYIVLRGDGPISNRAILAEEYDPKKHKYDAEYYIENQVLPAVLRILEGFGYRKEDLRYQKTRQVGLTSWLNIKKS
modifications: modified with dimethylmaleinimide reagent
For the molecule B1, in test [2] (setting [7]), the “Activity at 50° C. (%) After 10 min. preheating at 95° C.” value is listed as roughly 100%, the “Activity at 50° C. (%) Without preheating at 95° C.” value is roughly 20% and the “Activity at 72° C. (%) After 10 min. preheating at 95° C.” value is reported as roughly 100%. In test [2] (setting [8]), the “Activity at 50° C. (%) After 10 min. preheating at 95° C.” value was roughly 100%, the “Activity at 50° C. (%) Without preheating at 95° C.” value is reported as roughly 0% and the “Activity at 72° C. (%) After 10 min. preheating at 95° C.” value is roughly 90%.
